The results in this text go back to paper PMC12346409, “Amphiphilic Oligonucleotide Derivatives as a Tool to Study DNA Repair Proteins”.

The target of one series is T1, PARP3 (UniProt Q9Y6F1 1-533).
T1 sequence: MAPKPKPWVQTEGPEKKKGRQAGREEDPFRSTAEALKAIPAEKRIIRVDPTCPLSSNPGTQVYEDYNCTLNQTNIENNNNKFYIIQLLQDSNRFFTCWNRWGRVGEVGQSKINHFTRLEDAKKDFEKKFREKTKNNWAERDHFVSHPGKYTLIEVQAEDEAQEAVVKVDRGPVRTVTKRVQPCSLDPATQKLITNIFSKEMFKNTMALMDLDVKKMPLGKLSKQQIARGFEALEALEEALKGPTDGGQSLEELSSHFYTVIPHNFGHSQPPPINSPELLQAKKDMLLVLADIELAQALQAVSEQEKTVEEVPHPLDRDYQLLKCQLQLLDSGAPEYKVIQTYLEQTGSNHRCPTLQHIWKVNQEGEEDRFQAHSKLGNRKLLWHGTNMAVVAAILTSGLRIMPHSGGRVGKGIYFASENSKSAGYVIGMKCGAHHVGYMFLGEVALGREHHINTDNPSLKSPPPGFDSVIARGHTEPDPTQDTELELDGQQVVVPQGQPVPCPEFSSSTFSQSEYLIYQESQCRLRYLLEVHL
The series is described as follows: EMSA; 10 nM DNA, up to 10-fold PARP3 excess; EMSA: 50 mM Tris-HCl pH 8.0, 20 mM NaCl, 0.25 mM EDTA, 5% glycerol, 0.025% NP-40, 37 °C 20 min; 8% PAAG, 0.5x TBE, 10 °C. The settings on record: protein: recombinant; label: 5'-32P on O1-Pho strand; 5' overhang 5 nt on strand 1 as printed; other end blunt. In general terms: Mobility shift assays separate free from complexed probe on a gel.

The target in series [1] is T2, PARP1 (human, UniProt P09874 1-1014). The series can be described thus: photo-cross-linking; 100 nM DNA, 100 nM protein; EMSA: 50 mM Tris-HCl pH 8.0, 20 mM NaCl, 0.25 mM EDTA, 5% glycerol, 0.025% NP-40, 37 °C 20 min; 8% PAAG, 0.5x TBE, 10 °C. The settings on record: protein: recombinant; nicked duplex, blunt ends, strands 1 and 2 paired to strand 3.
A further series has as its target Ku antigen (Ku70/Ku80) (UniProt P12956;P13010 1-609;1-732). The series can be described thus: photo-cross-linking; 100 nM DNA, 100 nM protein; Ku70 and Ku80 labelled; EMSA: 50 mM Tris-HCl pH 8.0, 20 mM NaCl, 0.25 mM EDTA, 5% glycerol, 0.025% NP-40, 37 °C 20 min; 8% PAAG, 0.5x TBE, 10 °C. The settings on record: copies: 1;1; nicked duplex, blunt ends, strands 1 and 2 paired to strand 3.

The target of another series is PARP2 (human, UniProt Q9UGN5 1-583). The series is described as follows: photo-cross-linking; no NAD+; 200 nM PARP2, 100 nM DNA; EMSA: 50 mM Tris-HCl pH 8.0, 20 mM NaCl, 0.25 mM EDTA, 5% glycerol, 0.025% NP-40, 37 °C 20 min; 8% PAAG, 0.5x TBE, 10 °C. The settings on record: protein: recombinant; label: 5'-32P; 5' overhang 4 nt on strand 1; other end blunt.
Series [2] deals with T2, PARP1. The series is described as follows: photo-cross-linking; no NAD+; 200 nM PARP1, 100 nM DNA; EMSA: 50 mM Tris-HCl pH 8.0, 20 mM NaCl, 0.25 mM EDTA, 5% glycerol, 0.025% NP-40, 37 °C 20 min; 8% PAAG, 0.5x TBE, 10 °C. The settings on record: protein: recombinant; label: 5'-32P; 5' overhang 4 nt on strand 1; other end blunt.

T2 sequence (P09874 whole entry): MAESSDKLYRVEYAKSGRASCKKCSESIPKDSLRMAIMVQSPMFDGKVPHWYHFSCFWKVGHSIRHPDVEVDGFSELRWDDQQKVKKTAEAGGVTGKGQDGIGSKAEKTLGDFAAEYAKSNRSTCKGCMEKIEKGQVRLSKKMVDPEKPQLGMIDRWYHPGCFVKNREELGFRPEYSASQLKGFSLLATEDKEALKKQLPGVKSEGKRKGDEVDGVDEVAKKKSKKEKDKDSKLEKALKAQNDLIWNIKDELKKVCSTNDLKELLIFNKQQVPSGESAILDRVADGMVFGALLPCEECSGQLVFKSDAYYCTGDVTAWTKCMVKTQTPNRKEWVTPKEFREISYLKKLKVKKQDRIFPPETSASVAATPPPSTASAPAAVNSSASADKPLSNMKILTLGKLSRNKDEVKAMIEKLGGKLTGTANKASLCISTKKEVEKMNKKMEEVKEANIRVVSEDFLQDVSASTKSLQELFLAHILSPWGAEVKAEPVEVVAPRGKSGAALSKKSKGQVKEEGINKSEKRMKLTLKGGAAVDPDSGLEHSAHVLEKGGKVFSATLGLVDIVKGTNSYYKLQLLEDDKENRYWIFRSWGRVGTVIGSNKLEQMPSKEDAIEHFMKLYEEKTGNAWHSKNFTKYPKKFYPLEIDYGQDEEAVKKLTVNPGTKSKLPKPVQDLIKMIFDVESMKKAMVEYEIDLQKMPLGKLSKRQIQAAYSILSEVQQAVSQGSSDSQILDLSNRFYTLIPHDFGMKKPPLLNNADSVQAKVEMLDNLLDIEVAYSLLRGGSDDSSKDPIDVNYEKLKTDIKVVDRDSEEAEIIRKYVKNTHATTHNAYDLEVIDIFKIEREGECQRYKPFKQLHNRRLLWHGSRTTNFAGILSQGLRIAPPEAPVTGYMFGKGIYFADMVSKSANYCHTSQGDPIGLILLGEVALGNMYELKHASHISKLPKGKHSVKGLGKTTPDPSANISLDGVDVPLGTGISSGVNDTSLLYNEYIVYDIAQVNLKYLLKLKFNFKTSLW
Chain of Ku antigen (Ku70/Ku80) (P12956 whole entry, chain 1 of 2): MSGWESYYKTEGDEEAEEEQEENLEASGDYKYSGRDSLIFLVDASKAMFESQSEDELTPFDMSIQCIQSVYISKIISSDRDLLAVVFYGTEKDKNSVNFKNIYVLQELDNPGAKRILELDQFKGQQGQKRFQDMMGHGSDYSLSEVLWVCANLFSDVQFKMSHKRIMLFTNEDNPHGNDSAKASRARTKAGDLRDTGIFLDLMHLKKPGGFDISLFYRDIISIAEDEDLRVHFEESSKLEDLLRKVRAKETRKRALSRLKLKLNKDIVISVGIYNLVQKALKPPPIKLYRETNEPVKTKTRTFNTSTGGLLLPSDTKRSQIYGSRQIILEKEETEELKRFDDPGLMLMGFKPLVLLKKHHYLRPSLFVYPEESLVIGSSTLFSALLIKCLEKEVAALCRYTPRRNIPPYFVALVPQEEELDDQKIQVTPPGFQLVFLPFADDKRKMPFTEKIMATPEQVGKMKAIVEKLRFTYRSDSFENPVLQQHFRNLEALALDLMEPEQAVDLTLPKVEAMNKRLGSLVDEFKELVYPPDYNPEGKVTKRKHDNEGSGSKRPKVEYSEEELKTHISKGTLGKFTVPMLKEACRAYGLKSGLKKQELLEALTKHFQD
Chain of Ku antigen (Ku70/Ku80) (P13010 whole entry, chain 2 of 2): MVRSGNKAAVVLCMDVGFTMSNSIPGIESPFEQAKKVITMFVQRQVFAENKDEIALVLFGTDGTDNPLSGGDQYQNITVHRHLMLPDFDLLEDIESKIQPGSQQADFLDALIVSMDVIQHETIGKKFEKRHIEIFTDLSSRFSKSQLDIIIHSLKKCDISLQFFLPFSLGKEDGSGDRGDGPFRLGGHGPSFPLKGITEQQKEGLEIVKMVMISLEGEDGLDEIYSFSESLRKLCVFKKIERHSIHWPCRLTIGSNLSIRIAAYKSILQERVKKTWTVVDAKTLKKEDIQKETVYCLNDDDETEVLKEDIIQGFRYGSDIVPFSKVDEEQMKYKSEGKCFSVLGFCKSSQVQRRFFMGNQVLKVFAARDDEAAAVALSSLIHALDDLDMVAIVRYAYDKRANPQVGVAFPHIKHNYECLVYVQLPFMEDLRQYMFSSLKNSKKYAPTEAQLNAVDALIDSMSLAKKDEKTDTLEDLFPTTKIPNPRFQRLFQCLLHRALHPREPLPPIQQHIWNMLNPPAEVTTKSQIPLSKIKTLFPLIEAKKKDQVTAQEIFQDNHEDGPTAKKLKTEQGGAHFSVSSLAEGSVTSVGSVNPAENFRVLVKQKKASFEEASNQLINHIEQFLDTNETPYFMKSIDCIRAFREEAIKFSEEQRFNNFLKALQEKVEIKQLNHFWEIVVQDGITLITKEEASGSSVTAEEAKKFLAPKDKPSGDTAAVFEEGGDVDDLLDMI
Chain of PARP2 (Q9UGN5 whole entry): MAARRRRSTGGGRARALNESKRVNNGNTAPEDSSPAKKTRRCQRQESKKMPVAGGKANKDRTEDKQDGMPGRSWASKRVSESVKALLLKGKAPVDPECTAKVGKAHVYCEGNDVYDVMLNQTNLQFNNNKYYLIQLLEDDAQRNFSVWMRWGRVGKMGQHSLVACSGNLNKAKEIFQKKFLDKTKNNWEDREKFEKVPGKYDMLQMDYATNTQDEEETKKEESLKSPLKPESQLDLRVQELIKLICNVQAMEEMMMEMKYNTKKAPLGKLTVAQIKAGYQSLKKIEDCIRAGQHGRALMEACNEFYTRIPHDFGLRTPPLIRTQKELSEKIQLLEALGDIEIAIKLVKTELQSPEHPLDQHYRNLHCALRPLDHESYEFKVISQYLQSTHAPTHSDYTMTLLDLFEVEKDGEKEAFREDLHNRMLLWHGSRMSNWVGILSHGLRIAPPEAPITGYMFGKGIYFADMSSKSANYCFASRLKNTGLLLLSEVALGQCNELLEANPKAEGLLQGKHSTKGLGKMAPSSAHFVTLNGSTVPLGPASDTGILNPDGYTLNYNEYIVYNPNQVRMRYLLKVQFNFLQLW

B1: DNA-R (EMSA, O-R/O1-Pho) (dsDNA)
DNA 1: TCCTGACATACTTGATACTTAGACATTCTT
DNA 2: AAGAATGTCTAAGTATCAAGTATGT
In the case of B1, the binding result with PARP3 is on record as “no binding”.

B2: Pho-dRP (dsDNA)
DNA 1: GGCGACTAAGCCGGGC
DNA 2: AACGCCAGGGCCTCCC
DNA 3: GGGAGGCCCTGGCGTTGCCCGGCTTAGTCGCC
modifications: 3'-terminal FAP-dCMP on strand 1; 5'-dRP on strand 2
Regarding B2, the binding result with PARP1 [1] and with Ku antigen (Ku70/Ku80) was “binds” in each case.

B3: Pho-DNA-R (dsDNA)
DNA 1: B1 DNA 1
DNA 2: AAGAATGTCTAAGTATCAAGTATGTC
modifications: 3'-terminal FAP-dCMP (photoactivatable C) on strand 2
For the molecule B3, the binding result with PARP2 and in the series with PARP1 [2] was “binds” in each case.
